Data on two molecules can be found in publication PMC5640651, “Interfering with the high-affinity interaction between wheat amylase trypsin inhibitor CM3 and toll-like receptor 4: in silico and biosensor-based studies” (Scientific Reports, 2017).

What all share (conditions): both partners purified
For experiment [1], the target named is T1, human toll-like receptor 4, His-tagged (human, UniProt O00206 24-631).
T1 construct: toll-like receptor 4, human; called the extracellular domain of TLR4 in the results; described as a 100 kDa protein with isoelectric point 5.88; Coupled covalently to the carboxylate cuvette by EDC/NHS 'via the N-terminus of the poly-His tail'; also called TLR4; TLR4-His; source: pEF-BOS TLR4 plasmid, transfected in HCT-116 cell line (author contributions)
T1 sequence (O00206 24-631): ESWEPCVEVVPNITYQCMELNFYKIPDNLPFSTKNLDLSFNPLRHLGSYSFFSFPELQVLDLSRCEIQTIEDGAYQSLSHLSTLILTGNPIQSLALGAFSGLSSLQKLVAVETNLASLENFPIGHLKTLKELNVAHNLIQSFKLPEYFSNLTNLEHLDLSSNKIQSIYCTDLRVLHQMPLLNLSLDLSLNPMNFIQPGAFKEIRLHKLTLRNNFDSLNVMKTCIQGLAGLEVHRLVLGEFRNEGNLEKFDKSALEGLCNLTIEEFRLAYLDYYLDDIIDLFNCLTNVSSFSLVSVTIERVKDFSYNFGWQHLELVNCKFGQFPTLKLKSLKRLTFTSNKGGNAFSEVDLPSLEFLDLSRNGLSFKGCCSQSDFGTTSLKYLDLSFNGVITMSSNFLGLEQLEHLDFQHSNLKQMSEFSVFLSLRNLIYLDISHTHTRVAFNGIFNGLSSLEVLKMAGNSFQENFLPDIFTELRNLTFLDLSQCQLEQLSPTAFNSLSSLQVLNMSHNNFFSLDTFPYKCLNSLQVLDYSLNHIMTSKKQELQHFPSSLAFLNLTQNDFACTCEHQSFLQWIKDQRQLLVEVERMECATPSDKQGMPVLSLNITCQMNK
As to the kind of experiment: SPR; IAsys plus evanescent wave/resonant mirror biosensor (the paper calls it surface plasmon resonance); TLR4-His covalently immobilised on carboxylate cuvette; 37 °C; PBS pH 7.4 with 140 mM NaCl; mono-exponential fits.

For experiment [2], the target named is T1, human toll-like receptor 4, His-tagged. The experiment is described as above. The source holds these as a separate data set.
The target is the same in experiment [3]. As to the kind of experiment: SPR; IAsys plus resonant mirror biosensor; TLR4-His immobilised; 37 °C; 20 mM PBS, no NaCl.
Experiment [4] has the same target. As to the kind of experiment: SPR; IAsys plus resonant mirror biosensor; TLR4-His immobilised; 37 °C; 20 mM PBS, 25 mM NaCl.
The target is the same in experiment [5]. Briefly: SPR; IAsys plus resonant mirror biosensor; TLR4-His immobilised; 37 °C; 20 mM PBS, 50 mM NaCl. (In general: In SPR one partner is held on a chip, and binding of the other changes the refractive index at the surface.)
For experiment [6] the target is unchanged. As to the kind of experiment: SPR; IAsys plus evanescent wave/resonant mirror biosensor (the paper calls it surface plasmon resonance); TLR4-His covalently immobilised on carboxylate cuvette; 37 °C; PBS pH 7.4 with 140 mM NaCl; mono-exponential fits. The source holds these as a separate data set.

B1: RSGNVGESGLI oligopeptide derived from wheat ATI CM3 (peptide)
peptide: RSGNVGESGLI
notes: stretch of wheat ATI CM3; also called straight peptide; StrP; source: synthetic peptide
Turning to B1, in experiment [1], the “stoichiometry N” value came to 1. In experiment [2], the Kd came to 1400 nM, the koff stood at 0.005 s⁻¹ and the kon is 3620 M⁻¹ s⁻¹.

B2: wheat amylase trypsin inhibitor CM3 (natural protein, UniProt P17314 26-168, looked up)
chain: SGSCVPGVAFRTNLLPHCRDYVLQQTCGTFTPGSKLPEWMTSASIYSPGKPYLAKLYCCQELAEISQQCRCEALRYFIALPVPSQPVDPRSGNVGESGLIDLPGCPREMQWDFVRLLVAPGQCNLATIHNVRYCPAVEQPLWI
notes: also called ATI; wheat ATI CM3
With B2, the Kd was 2.3 nM in experiment [3]; 10 nM in experiment [4]; 18 nM in experiment [5]; 36 nM in experiment [1]; 61 nM in experiment [6]. Also, the koff was determined as 0.0001 s⁻¹ in experiment [3], 0.0004 s⁻¹ in experiment [4], 0.0007 s⁻¹ in experiment [5] and 0.0025 s⁻¹ in experiment [6]. The on-rate constant (kon) in experiment [3] is 43000 M⁻¹ s⁻¹; in experiment [4] it was 39000 M⁻¹ s⁻¹; in experiment [5], 40000 M⁻¹ s⁻¹; in experiment [6] it was 41000 M⁻¹ s⁻¹. Besides, the “stoichiometry N” value in experiment [1] turned out to be 1.

A word on the stoichiometry N: it is a count of units in the complex or per binding partner. Broadly, the Kd is the equilibrium constant for the complex coming apart. As a reminder, the koff is the rate constant with which the complex falls apart. The kon is the rate constant with which the complex forms.
